Reference: patent KR20200019669A (dated 2020)

Target: T1, his 태그가 부착된 재조합 인간 CD38 (recombinant human CD38 extracellular domain, His-tagged) (human, UniProt P28907 43-300, biotinylated in part of the ForteBio assays (EZ-Link sulfo-NHS biotinylation))
T1 construct: Bought from Sino Biological; also called rhCD38; rhCD38-his; not shown: histidine tag
T1 sequence: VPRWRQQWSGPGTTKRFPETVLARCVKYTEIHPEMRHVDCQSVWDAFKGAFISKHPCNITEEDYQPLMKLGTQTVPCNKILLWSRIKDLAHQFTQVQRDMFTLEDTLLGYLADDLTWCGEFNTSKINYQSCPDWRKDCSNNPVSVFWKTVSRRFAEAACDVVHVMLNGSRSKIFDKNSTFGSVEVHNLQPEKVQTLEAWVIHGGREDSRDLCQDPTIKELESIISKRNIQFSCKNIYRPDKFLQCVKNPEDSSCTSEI
Assay: affinity on recombinant human CD38 extracellular domain (Octet/Biacore); order of magnitude told in text

Kd: ~1 nM
B1: aCD38-b-329 (antibody, human IgG1, V domains shown)
VH: QLQLQESGPGLVKPSETLSLTCTVSGGSISSSDYYWGWIRQPPGKGLEWIGSIYYSGSTYYNPSLKSRVTISVDTSKNQFSLKLSSVTAADTAVYYCARGQYSSGWYAYPFDMWGQGTMVTVSS
VL: EIVLTQSPGTLSLSPGERATLSCRASQSVRSSYLAWYQQKPGQAPRLLIYGASSRATGIPDRFSGSGSGTDFTLTISRLEPEDFAVYYCQQDGAVFTFGGGTKVEIK
notes: Human IgG1 with kappa constant region (P01857, P01834)
